Target: Gloeobacter violaceus deeply-rooted thioredoxin reductase (GvDTR), renamed ferredoxin flavin-thioredoxin reductase (GvFFTR) (Gloeobacter violaceus) (UniProt Q7NMP6)
Test: ITC

Substance: Gloeobacter violaceus plant-type [2Fe-2S] ferredoxin 1 (GvFdx1) (natural protein)
- stoichiometry N: 1
